Test results reported in article PMC6044475.

Legend:
Experiment in all cases: SEC
[1] = biological target: Eca Y396A (Enterococcus casseliflavus)
[2] = biological target: Eca E318Q (Enterococcus casseliflavus)
[3] = biological target: Eca T320A (Enterococcus casseliflavus)

Eca Y396A (natural protein)
stoichiometry N [1]: 2

Eca E318Q (natural protein)
stoichiometry N [2]: 2

Eca T320A (natural protein)
stoichiometry N [3]: 2
